Source: patent publication US20230265171A1

How the values were obtained:
Experiment in all cases: ELISA, antigen coated at 2 µg/mL
[1] = molecular target: CoV-2 RBD (N354D) (SARS-CoV-2) (UniProt P0DTC2)
[2] = molecular target: CoV-2 S (R683A, R685A) (SARS-CoV-2) (UniProt P0DTC2)
[3] = molecular target: CoV-2 RBD (N354D, D364Y) (SARS-CoV-2) (UniProt P0DTC2)
[4] = molecular target: CoV-2 RBD (W436R) (SARS-CoV-2) (UniProt P0DTC2)
[5] = molecular target: CoV-2 S (D614G) (SARS-CoV-2) (UniProt P0DTC2)
[6] = molecular target: CoV-2 RBD (V367F) (SARS-CoV-2) (UniProt P0DTC2)

| Substance | EC50 [1] [µg/mL] | EC50 [2] [µg/mL] | EC50 [3] [µg/mL] | EC50 [4] [µg/mL] | EC50 [5] [µg/mL] | EC50 [6] [µg/mL] |
| --- | --- | --- | --- | --- | --- | --- |
| IVIG (Gamunex) | 1240 | 2840 | 1320 | 1240 | 1330 | 1130 |
| SARS CoV-2 mAb [SAD-S35] (antibody) | 0.04 | 0.05 | 0.05 | 0.04 | 0.03 | 0.04 |
